In PMC11446282:
Residue numbers refer to the chain shown, from its start.

Tested on: PP2A-B55α
Assay: Single alanine mutational scan, YFP-tagged interactors immunoprecipitated from HeLa cells, Western blot
Format: binding, human
[1] = single alanine mutant of YFP-tagged ZDS1
[2] = single alanine mutant of YFP-tagged EYA3

B1: ZDS1 S864: ZDS1, S864 to alanine (protein, UniProt P50111 1-915, looked up, variant S864A)
Protein ZDS1: MSNRDNESMLRTTSSDKAIASQRDKRKSEVLIAAQSLDNEIRSVKNLKRLSIGSMDLLIDPELDIKFGGESSGRRSWSGTTSSSASMPSDTTTVNNTRYSDPTPLENLHGRGNSGIESSNKTKQGNYLGIKKGVHSPSRKLNANVLKKNLLWVPANQHPNVKPDNFLELVQDTLQNIQLSDNGEDNDGNSNENNDIEDNGEDKESQSYENKENNTINLNRGLSRHGNASLIRRPSTLRRSYTEFDDNEDDDNKGDSASETVNKVEERISKIKERPVSLRDITEELTKISNSAGLTDNDAITLARTLSMAGSYSDKKDQPQPEGHYDEGDIGFSTSQANTLDDGEFASNMPINNTMTWPERSSLRRSRFNTYRIRSQEQEKEVEQSVDEMKNDDEERLKLTKNTIKVEIDPHKSPFRQQDEDSENMSSPGSIGDFQDIYNHYRQSSGEWEQEMGIEKEAEEVPVKVRNDTVEQDLELREGTTDMVKPSATDDNKETKRHRRRNGWTWLNNKMSREDDNEENQGDDENEENVDSQRMELDNSKKHYISLFNGGEKTEVSNKEEMNNSSTSTATSQTRQKIEKTFANLFRRKPHHKHDASSSPSSSPSSSPSIPNNDAVHVRVRKSKKLGNKSGREPVEPIVLRNRPRPHRHHHSRHGSQKISVKTLKDSQPQQQIPLQPQLEGAIEIEKKEESDSESLPQLQPAVSVSSTKSNSRDREEEEAKKKNKKRSNTTEISNQQHSKHVQKENTDEQKAQLQAPAQEQVQTSVPVQASAPVQNSAPVQTSAPVEASAQTQAPAAPPLKHTSILPPRKLTFADVKKPDKPNSPVQFTDSAFGFPLPLLTVSTVIMFDHRLPINVERAIYRLAHLKLSNSKRGLREQVLLSNFMYAYLNLVNHTLYMEQVAHDKEQQQQQQQQP
- Experimental % binding [1]: 113%

B2: ZDS1 Q878: ZDS1, Q878 to alanine (protein, UniProt P50111 1-915, looked up, variant Q878A)
Protein ZDS1: B1 Protein ZDS1 with A864S, Q878A
- Experimental % binding [1]: 13%

B3: ZDS1 H865: ZDS1, H865 to alanine (protein, UniProt P50111 1-915, looked up, variant H865A)
Protein ZDS1: B1 Protein ZDS1 with A864S, H865A
- Experimental % binding [1]: 75%

B4: ZDS1 K867: ZDS1, K867 to alanine (protein, UniProt P50111 1-915, looked up, variant K867A)
Protein ZDS1: B1 Protein ZDS1 with A864S, K867A
- Experimental % binding [1]: 15%

B5: ZDS1 L868: ZDS1, L868 to alanine (protein, UniProt P50111 1-915, looked up, variant L868A)
Protein ZDS1: B1 Protein ZDS1 with A864S, L868A
- Experimental % binding [1]: 56%

B6: ZDS1 S871: ZDS1, S871 to alanine (protein, UniProt P50111 1-915, looked up, variant S871A)
Protein ZDS1: B1 Protein ZDS1 with A864S, S871A
- Experimental % binding [1]: 102%

B7: ZDS1 L866: ZDS1, L866 to alanine (protein, UniProt P50111 1-915, looked up, variant L866A)
Protein ZDS1: B1 Protein ZDS1 with A864S, L866A
- Experimental % binding [1]: 52%

B8: ZDS1 N870: ZDS1, N870 to alanine (protein, UniProt P50111 1-915, looked up, variant N870A)
Protein ZDS1: B1 Protein ZDS1 with A864S, N870A
- Experimental % binding [1]: 49%

B9: ZDS1 E877: ZDS1, E877 to alanine (protein, UniProt P50111 1-915, looked up, variant E877A)
Protein ZDS1: B1 Protein ZDS1 with A864S, E877A
- Experimental % binding [1]: 0%

B10: ZDS1 S869: ZDS1, S869 to alanine (protein, UniProt P50111 1-915, looked up, variant S869A)
Protein ZDS1: B1 Protein ZDS1 with A864S, S869A
- Experimental % binding [1]: 77%

B11: ZDS1 L875: ZDS1, L875 to alanine (protein, UniProt P50111 1-915, looked up, variant L875A)
Protein ZDS1: B1 Protein ZDS1 with A864S, L875A
- Experimental % binding [1]: 0%

B12: ZDS1 G874: ZDS1, G874 to alanine (protein, UniProt P50111 1-915, looked up, variant G874A)
Protein ZDS1: B1 Protein ZDS1 with A864S, G874A
- Experimental % binding [1]: 80%

B13: ZDS1 R873: ZDS1, R873 to alanine (protein, UniProt P50111 1-915, looked up, variant R873A)
Protein ZDS1: B1 Protein ZDS1 with A864S, R873A
- Experimental % binding [1]: 15%

B14: ZDS1 R876: ZDS1, R876 to alanine (protein, UniProt P50111 1-915, looked up, variant R876A)
Protein ZDS1: B1 Protein ZDS1 with A864S, R876A
- Experimental % binding [1]: 0%

B15: ZDS1 V879: ZDS1, V879 to alanine (protein, UniProt P50111 1-915, looked up, variant V879A)
Protein ZDS1: B1 Protein ZDS1 with A864S, V879A
- Experimental % binding [1]: 2%

B16: ZDS1 K872: ZDS1, K872 to alanine (protein, UniProt P50111 1-915, looked up, variant K872A)
Protein ZDS1: B1 Protein ZDS1 with A864S, K872A
- Experimental % binding [1]: 23%

B17: EYA3 T88: EYA3, T88 to alanine (protein, UniProt Q99504 1-573, looked up, variant T88A)
Protein phosphatase EYA3: MEEEQDLPEQPVKKAKMQESGEQTISQVSNPDVSDQKPETSSLASNLPMSEEIMTCTDYIPRSSNDYTSQMYSAKPYAHILSVPVSEAAYPGQTQYQTLQQTQPYAVYPQATQTYGLPPFGALWPGMKPESGLIQTPSPSQHSVLTCTTGLTTSQPSPAHYSYPIQASSTNASLISTSSTIANIPAAAVASISNQDYPTYTILGQNQYQACYPSSSFGVTGQTNSDAESTTLAATTYQSEKPSVMAPAPAAQRLSSGDPSTSPSLSQTTPSKDTDDQSRKNMTSKNRGKRKADATSSQDSELERVFLWDLDETIIIFHSLLTGSYAQKYGKDPTVVIGSGLTMEEMIFEVADTHLFFNDLEECDQVHVEDVASDDNGQDLSNYSFSTDGFSGSGGSGSHGSSVGVQGGVDWMRKLAFRYRKVREIYDKHKSNVGGLLSPQRKEALQRLRAEIEVLTDSWLGTALKSLLLIQSRKNCVNVLITTTQLVPALAKVLLYGLGEIFPIENIYSATKIGKESCFERIVSRFGKKVTYVVIGDGRDEEIAAKQHNMPFWRITNHGDLVSLHQALELDFL
- Experimental % binding [2]: 1%

B18: EYA3 P91: EYA3, P91 to alanine (protein, UniProt Q99504 1-573, looked up, variant P91A)
Protein phosphatase EYA3: B17 Protein phosphatase EYA3 with A88T, P91A
- Experimental % binding [2]: 5%

B19: EYA3 L81: EYA3, L81 to alanine (protein, UniProt Q99504 1-573, looked up, variant L81A)
Protein phosphatase EYA3: B17 Protein phosphatase EYA3 with L81A, A88T
- Experimental % binding [2]: 20%

B20: EYA3 Y90: EYA3, Y90 to alanine (protein, UniProt Q99504 1-573, looked up, variant Y90A)
Protein phosphatase EYA3: B17 Protein phosphatase EYA3 with A88T, Y90A
- Experimental % binding [2]: 5%

B21: EYA3 K75: EYA3, K75 to alanine (protein, UniProt Q99504 1-573, looked up, variant K75A)
Protein phosphatase EYA3: B17 Protein phosphatase EYA3 with K75A, A88T
- Experimental % binding [2]: 45%

B22: EYA3 I80: EYA3, I80 to alanine (protein, UniProt Q99504 1-573, looked up, variant I80A)
Protein phosphatase EYA3: B17 Protein phosphatase EYA3 with I80A, A88T
- Experimental % binding [2]: 5%

B23: EYA3 Y77: EYA3, Y77 to alanine (protein, UniProt Q99504 1-573, looked up, variant Y77A)
Protein phosphatase EYA3: B17 Protein phosphatase EYA3 with Y77A, A88T
- Experimental % binding [2]: 20%

B24: EYA3 H79: EYA3, H79 to alanine (protein, UniProt Q99504 1-573, looked up, variant H79A)
Protein phosphatase EYA3: B17 Protein phosphatase EYA3 with H79A, A88T
- Experimental % binding [2]: 10%
